{"source": "the RNAGym collection of RNA variant scans (doi:10.1073/pnas.2313332121)", "parents": {"B1": {"name": "TPR t1 (parent)", "chain": "GACCAAUCUGCCCUCAGAGCUCGAGAACAUCUUCGGAUGCAGAGGAGGCAGGCUUCGGUGGCGCGAUAGCGCCAACGUCCUCAACCUCCAAUGCAUCCCACCACAUGAUGAUGCCUGAAGAGCCUUGGUUUUUUG"}}, "data": [{"variants_of": "B1", "test": "polymerase ribozyme fitness, log enrichment relative to wild type (log ratio); higher = more active; in vitro selection for triplet polymerase activity", "how_it_was_run": "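To select mutant libraries of each subunit of a heterodimeric triplet polymerase ribozyme, built by PCR and transcribed, each was annealed with a biotinylated primer, partner subunit and triplets, then incubated frozen at −7 °C. Extended constructs were gel-excised, captured on streptavidin beads and amplified by RT-PCR, in one round carried out in triplicate. Illumina sequencing of input and output libraries kept genotypes with ≥10 input reads and ≥1 read per output. Fitness is the base-2 logarithm of genotype enrichment relative to wild-type enrichment, from inverse-variance-weighted replicate averages.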", "values": [{"variant": "G60A G69U C72U C86G A118U U129A", "polymerase ribozyme fitness (log ratio)": -5.04}, {"variant": "G60A C82U C85G U129A", "polymerase ribozyme fitness (log ratio)": -3}, {"variant": "G58A A90C", "polymerase ribozyme fitness (log ratio)": -1.28}, {"variant": "C56G C62U", "polymerase ribozyme fitness (log ratio)": 0.102}, {"variant": "U59G C88G", "polymerase ribozyme fitness (log ratio)": -2.09}, {"variant": "G57U G122A", "polymerase ribozyme fitness (log ratio)": -1.56}, {"variant": "C56U G120C G127U", "polymerase ribozyme fitness (log ratio)": 2.09}, {"variant": "U59A C85U G113A", "polymerase ribozyme fitness (log ratio)": -2.11}, {"variant": "G57U U87A A90C C101U C114U U125A", "polymerase ribozyme fitness (log ratio)": -4.29}, {"variant": "C56G G122A", "polymerase ribozyme fitness (log ratio)": -1.46}, {"variant": "C56U C86G C104U", "polymerase ribozyme fitness (log ratio)": -0.849}, {"variant": "G57A C94U", "polymerase ribozyme fitness (log ratio)": -2.53}, {"variant": "C56U A95G C101A", "polymerase ribozyme fitness (log ratio)": -1.46}, {"variant": "G57U G61C U78G C114U A118U", "polymerase ribozyme fitness (log ratio)": -5.83}, {"variant": "G57U U116C", "polymerase ribozyme fitness (log ratio)": -1.31}, {"variant": "G58C A83C", "polymerase ribozyme fitness (log ratio)": 0.207}, {"variant": "G57C G61U U96G", "polymerase ribozyme fitness (log ratio)": -1.85}, {"variant": "C56G G135A", "polymerase ribozyme fitness (log ratio)": -1.39}, {"variant": "G60A G61U G127C", "polymerase ribozyme fitness (log ratio)": -5.15}, {"variant": "G57U G71A", "polymerase ribozyme fitness (log ratio)": -0.471}, {"variant": "C56U A95C A118C C124A U132A", "polymerase ribozyme fitness (log ratio)": -0.917}, {"variant": "C56U A83C U106A A118U C123G", "polymerase ribozyme fitness (log ratio)": 1.63}, {"variant": "U59G G61U", "polymerase ribozyme fitness (log ratio)": -0.648}, {"variant": "C56U C72U C80U A90C", "polymerase ribozyme fitness (log ratio)": -2.11}, {"variant": "G57C U116C", "polymerase ribozyme fitness (log ratio)": -0.186}, {"variant": "C56G U92C", "polymerase ribozyme fitness (log ratio)": -1.23}, {"variant": "G57A C72U G113A C114U", "polymerase ribozyme fitness (log ratio)": -2.53}, {"variant": "C56G U109A G113C", "polymerase ribozyme fitness (log ratio)": -5.42}, {"variant": "G60A C99U G110U U130A", "polymerase ribozyme fitness (log ratio)": -5.82}, {"variant": "G58A G120U", "polymerase ribozyme fitness (log ratio)": -0.283}, {"variant": "G57A C64G U67G U81A A111U", "polymerase ribozyme fitness (log ratio)": -6.28}, {"variant": "C56G G57U C101G A111C", "polymerase ribozyme fitness (log ratio)": -1.77}, {"variant": "C56U G113U C123G U130G", "polymerase ribozyme fitness (log ratio)": -2.36}, {"variant": "C56G G71A", "polymerase ribozyme fitness (log ratio)": -4.31}, {"variant": "U59G G63U U129C", "polymerase ribozyme fitness (log ratio)": -2.43}, {"variant": "G60A G69U", "polymerase ribozyme fitness (log ratio)": -0.576}, {"variant": "C56A G127U U129A U130C", "polymerase ribozyme fitness (log ratio)": -1.7}, {"variant": "C56U A121U", "polymerase ribozyme fitness (log ratio)": 1.6}, {"variant": "C56G U78A G117A", "polymerase ribozyme fitness (log ratio)": -2.04}, {"variant": "G58U C82U C94U C114A", "polymerase ribozyme fitness (log ratio)": -2.23}, {"variant": "U59A U112A", "polymerase ribozyme fitness (log ratio)": 1.47}, {"variant": "C56G G69C", "polymerase ribozyme fitness (log ratio)": -4.54}, {"variant": "C56U A90G C104U G117A A118U U131G", "polymerase ribozyme fitness (log ratio)": -2.92}, {"variant": "G57U G77U G122A", "polymerase ribozyme fitness (log ratio)": -1.42}, {"variant": "C56G C98U G110A", "polymerase ribozyme fitness (log ratio)": -1.9}, {"variant": "G58A U59C C70G", "polymerase ribozyme fitness (log ratio)": -4.95}, {"variant": "G58C G120U", "polymerase ribozyme fitness (log ratio)": 0.305}, {"variant": "C56A U78A", "polymerase ribozyme fitness (log ratio)": 0.796}, {"variant": "C56A U78C", "polymerase ribozyme fitness (log ratio)": -0.456}, {"variant": "C56G C98A U112A C123A", "polymerase ribozyme fitness (log ratio)": -4.9}, {"variant": "G58A G71A U81G U132C", "polymerase ribozyme fitness (log ratio)": -3.8}, {"variant": "G58C C102A G120A", "polymerase ribozyme fitness (log ratio)": -2.34}, {"variant": "U59G C102A", "polymerase ribozyme fitness (log ratio)": -1.41}, {"variant": "C56U G77A", "polymerase ribozyme fitness (log ratio)": 0.388}, {"variant": "C56U G77C", "polymerase ribozyme fitness (log ratio)": -0.361}, {"variant": "G57A G71U C88G", "polymerase ribozyme fitness (log ratio)": -5.05}, {"variant": "C56U A74C A91G", "polymerase ribozyme fitness (log ratio)": -1.72}, {"variant": "U59C U78C G122A", "polymerase ribozyme fitness (log ratio)": -0.562}, {"variant": "G60A C88U A118G", "polymerase ribozyme fitness (log ratio)": -1.01}, {"variant": "G58C G71U A74G C85A A90C", "polymerase ribozyme fitness (log ratio)": -3.43}, {"variant": "C56G C64G", "polymerase ribozyme fitness (log ratio)": -7.2}, {"variant": "C56G C89G", "polymerase ribozyme fitness (log ratio)": -3.34}, {"variant": "G58A U130G", "polymerase ribozyme fitness (log ratio)": -0.629}, {"variant": "U59C C80A U81C", "polymerase ribozyme fitness (log ratio)": -3.7}, {"variant": "C56U C73A C85A A91G", "polymerase ribozyme fitness (log ratio)": -5.09}, {"variant": "C56U G122A", "polymerase ribozyme fitness (log ratio)": -0.36}, {"variant": "G60A G69U A95U U126A", "polymerase ribozyme fitness (log ratio)": -2.8}, {"variant": "G58C C98G", "polymerase ribozyme fitness (log ratio)": -5.66}, {"variant": "G58U C86A G117U U130G", "polymerase ribozyme fitness (log ratio)": -3.79}, {"variant": "U59G G110U G135U", "polymerase ribozyme fitness (log ratio)": -2.85}, {"variant": "C56G G110U", "polymerase ribozyme fitness (log ratio)": -1.13}, {"variant": "C56G C86U", "polymerase ribozyme fitness (log ratio)": 0.0765}, {"variant": "C56G U106A", "polymerase ribozyme fitness (log ratio)": -0.921}, {"variant": "C56U U78C", "polymerase ribozyme fitness (log ratio)": -0.427}, {"variant": "G60A C79U U130C", "polymerase ribozyme fitness (log ratio)": 0.829}, {"variant": "C56U G110U", "polymerase ribozyme fitness (log ratio)": -0.767}, {"variant": "G57A C72A G120A", "polymerase ribozyme fitness (log ratio)": -0.828}, {"variant": "C56U G57U G69U C114U C115A", "polymerase ribozyme fitness (log ratio)": -4.53}, {"variant": "C56U A95C G128C", "polymerase ribozyme fitness (log ratio)": -2.78}, {"variant": "U59C U81G", "polymerase ribozyme fitness (log ratio)": -3.51}, {"variant": "C56G G107A", "polymerase ribozyme fitness (log ratio)": -5.95}, {"variant": "U59A A75U C86A C115G U116A G117A", "polymerase ribozyme fitness (log ratio)": -5.94}, {"variant": "G57C G61U", "polymerase ribozyme fitness (log ratio)": -0.733}]}]}
